# In the supplement of paper PMC10567573:
# B1: PCMTD2 (parent)
# chain: FFIRTSDSFDKFDFCEPSFVTGNC
# Variants of: B1
# Test: protein stability index of a GFP-peptide fusion (GPS, HEK-293T) (PSI 1-6); higher = more stable
# Details: c terminus: a fixed tail appended
# 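Also: lentivirally expressed fusions sorted by FACS into six bins by GFP to DsRed ratio, PSI derived from sequencing read proportions per bin multiplied by bin number.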
row,Variant,protein stability index
1,FFIRTSDSFDKFDFCEPSFVTGLC,3.54
2,FFIRTSDSFDKFDFCEPSFVTGWC,2.05
3,FFIRTSDSFDKFDFCEPSFVTGYC,1.61
4,FFIRTSDSFDKFDFCEPSFVTGMC,1.83
5,FFIRTSDSFDKFDFCEPSFVTGSC,2.54
6,FFIRTSDSFDKFDFCEPSFVTGQC,3.51
7,FFIRTSDSFDKFDFCEPSFVTGIC,2.13
8,FFIRTSDSFDKFDFCEPSFVTGVC,2.89
9,FFIRTSDSFDKFDFCEPSFVTGDC,2.84
10,FFIRTSDSFDKFDFCEPSFVTGPC,1.39
11,FFIRTSDSFDKFDFCEPSFVTGKC,1.75
12,FFIRTSDSFDKFDFCEPSFVTGGC,4.12
13,FFIRTSDSFDKFDFCEPSFVTGAC,2.62
14,FFIRTSDSFDKFDFCEPSFVTGEC,2.27
15,FFIRTSDSFDKFDFCEPSFVTGTC,2.7
16,FFIRTSDSFDKFDFCEPSFVTGCC,3.73
17,FFIRTSDSFDKFDFCEPSFVTGRC,2.88
18,FFIRTSDSFDKFDFCEPSFVTGHC,2.16
19,FFIRTSDSFDKFDFCEPSFVTGNP,1.74

row,Variant,protein stability index
1,FFIRTSDSFDKFDFCEPSFVTGNA,2.73
2,FFIRTSDSFDKFDFCEPSFVTGNK,1.92
3,FFIRTSDSFDKFDFCEPSFVTGNY,2.53
4,FFIRTSDSFDKFDFCEPSFVTGNG,2.09
5,FFIRTSDSFDKFDFCEPSFVTGNS,2.78
6,FFIRTSDSFDKFDFCEPSFVTGNQ,2.85
7,FFIRTSDSFDKFDFCEPSFVTGNR,2.27
8,FFIRTSDSFDKFDFCEPSFVTGND,1.64
9,FFIRTSDSFDKFDFCEPSFVTGNM,3.61
10,FFIRTSDSFDKFDFCEPSFVTGNH,2.43
11,FFIRTSDSFDKFDFCEPSFVTGNN,1.47
12,FFIRTSDSFDKFDFCEPSFVTGNL,2.66
13,FFIRTSDSFDKFDFCEPSFVTGNF,3.29
14,FFIRTSDSFDKFDFCEPSFVTGNT,2.24
15,FFIRTSDSFDKFDFCEPSFVTGNE,2.04
16,FFIRTSDSFDKFDFCEPSFVTWNC,3.23
17,FFIRTSDSFDKFDFCEPSFVTYNC,1.85
18,FFIRTSDSFDKFDFCEPSFVTVNC,4.43
